# Assay results published in patent publication US20220306715A1 (SHATTUCK LABS, published 2022).
# Target: IL-6
# Assay: cell-based or functional assay
# IL-6, sequence (P05231 30-212): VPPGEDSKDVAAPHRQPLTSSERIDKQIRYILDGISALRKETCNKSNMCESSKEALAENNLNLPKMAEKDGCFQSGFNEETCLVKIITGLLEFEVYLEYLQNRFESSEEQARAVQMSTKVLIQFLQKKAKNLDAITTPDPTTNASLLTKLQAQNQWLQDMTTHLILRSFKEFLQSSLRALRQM
binder,measurement,value
human IL-6R-Fc-IL-35 chimeric protein (Fc fusion) chain 1: ELLDPCGYISPESPVVQLHSNFTAVCVLKEKCMDYFHVNANYIVWKTNHFTIPKEQYTIINRTASSVTFTDIASLNIQLTCNILTFGQLEQNVYGITIISGLPPEKPKNLSCIVNEGKKMRCEWDGGRETHLETNFTLKSEWATHKFADCKAKRDTPTSCTVDYSTVYFVNIEVWVEAENALGKVTSDHINFDPVYKVKPNPPHNLSVINSEELSSILKLTWTNPSIKSVIILKYNIQYRTKDASTWSQIPPEDTASTRSSFTVQDLKPFTEYVFRIRCMKEDGKGYWSDWSEEASGITYEDRPSKAPSFWYKIDPSHTQGYRTVQLVWKTLPPFEANGKILDYEVTLTRWKSHLQNYTVNATKLTVNLTNDRYLATLTVRNLVGKSDAAVLTIPACDFQATHPVMDLKAFPKDNMLWVEWTTPRESVKKYILEWCVLSDKAPCITDWQQEDGTVHRTYLRGNLAESKCYLITVTPVYADGPGSPESIKAYLKQAPPSKGPTVRTKKVGKNEAVLEWDQLPVDVQNGFIRNYTIFYRTIIGNETAVNVDSSHTEYTLSSLTSDTLYMVRMAAYTDEGGKDGPEFTFTTPKFAQGEIEGSGSRKGGKRGSKYGPPCPPCPAPEFLGGPSVFLFPPKPKDQLMISRTPEVTCVVVDVSQEDPEVQFNWYVDGVEVHNAKTKPREEQFNSTYRVVSVLTVLHQDWLSGKEYKCKVSSKGLPSSIEKTISNATGQPREPQVYTLPPSQEEMTKNQVSLTCLVKGFYPSDIAVEWESNGQPENNYKTTPPVLDSDGSFFLYSRLTVDKSRWQEGNVFSCSVLHEALHNHYTQKSLSLSLGKDEGGEDGSGSRNLPVATPDPGMFPCLHHSQNLLRAVSNMLQKARQTLEFYPCTSEEIDHEDITKDKTSTVEACLPLELTKNESCLNSRETSFITNGSCLASRKTSFMMALCLSSIYEDLKMYQVEFKTMNAKLLMDPKRQIFLDQNMLAVIDELMQALNFNSETVPQKSSLEEPDFYKTKIKLCILLHAFRIRAVTIDRVMSYLNAS chain 2: LAPRRCPAQEVARGVLTSLPGDSVTLTCPGVEPEDNATVHWVLRKPAAGSHPSRWAGMGRRLLLRSVQLHDSGNYSCYRAGRPAGTVHLLVDVPPEEPQLSCFRKSPLSNVVCEWGPRSTPSLTTKAVLLVRKFQNSPAEDFQEPCQYSQESQKFSCQLAVPEGDSSFYIVSMCVASSVGSKFSKTQTFQGCGILQPDPPANITVTAVARNPRWLSVTWQDPHSWNSSFYRLRFELRYRAERSKTFTTWMVKDLQHHCVIHDAWSGLRHVVQLRAQEEFGQGEWSEWSPEAMGTPWTESRSPPAENEVSTPMQALTTNKDDDNILFRDSANATSLPVQDSSSVPLPGSGSDEGGEDGSKYGPPCPPCPAPEFLGGPSVFLFPPKPKDQLMISRTPEVTCVVVDVSQEDPEVQFNWYVDGVEVHNAKTKPREEQFNSTYRVVSVLTVLHQDWLSGKEYKCKVSSKGLPSSIEKTISNATGQPREPQVYTLPPSQEEMTKNQVSLTCLVKGFYPSDIAVEWESNGQPENNYKTTPPVLDSDGSFFLYSRLTVDKSRWQEGNVFSCSVLHEALHNHYTQKSLSLSLGKRKGGKRGSGSRKGPPAALTLPRVQCRASRYPIAVDCSWTLPPAPNSTSPVSFIATYRLGMAARGHSWPCLQQTPTSTSCTITDVQLFSMAPYVLNVTAVHPWGSSSSFVPFITEHIIKPDPPEGVRLSPLAERQLQVQWEPPGSWPFPEIFSLKYWIRYKRQGAARFHRVGPIEATSFILRAVRPRARYYVQVAAQDLTDYGELSDWSLPATATMSLGK,EC50 of induction of apoptosis in IL-6 dependent DS-1 cells cultured 24 hours with IL-6 (caspase 3/7 luciferase assay),14.1 nM
